Tests used:
Mtr10p = Mtr10p (UniProt Q99189); assay: GST pull-down, S-tag blot, no extract; details: reference: mock-phosphorylated GST-Npl3p; sites S411
Mtr10-Protein A = target: T1, Mtr10-Protein A (S. cerevisiae, UniProt Q99189 1-972); assay: co-IP
T1 sequence (looked up): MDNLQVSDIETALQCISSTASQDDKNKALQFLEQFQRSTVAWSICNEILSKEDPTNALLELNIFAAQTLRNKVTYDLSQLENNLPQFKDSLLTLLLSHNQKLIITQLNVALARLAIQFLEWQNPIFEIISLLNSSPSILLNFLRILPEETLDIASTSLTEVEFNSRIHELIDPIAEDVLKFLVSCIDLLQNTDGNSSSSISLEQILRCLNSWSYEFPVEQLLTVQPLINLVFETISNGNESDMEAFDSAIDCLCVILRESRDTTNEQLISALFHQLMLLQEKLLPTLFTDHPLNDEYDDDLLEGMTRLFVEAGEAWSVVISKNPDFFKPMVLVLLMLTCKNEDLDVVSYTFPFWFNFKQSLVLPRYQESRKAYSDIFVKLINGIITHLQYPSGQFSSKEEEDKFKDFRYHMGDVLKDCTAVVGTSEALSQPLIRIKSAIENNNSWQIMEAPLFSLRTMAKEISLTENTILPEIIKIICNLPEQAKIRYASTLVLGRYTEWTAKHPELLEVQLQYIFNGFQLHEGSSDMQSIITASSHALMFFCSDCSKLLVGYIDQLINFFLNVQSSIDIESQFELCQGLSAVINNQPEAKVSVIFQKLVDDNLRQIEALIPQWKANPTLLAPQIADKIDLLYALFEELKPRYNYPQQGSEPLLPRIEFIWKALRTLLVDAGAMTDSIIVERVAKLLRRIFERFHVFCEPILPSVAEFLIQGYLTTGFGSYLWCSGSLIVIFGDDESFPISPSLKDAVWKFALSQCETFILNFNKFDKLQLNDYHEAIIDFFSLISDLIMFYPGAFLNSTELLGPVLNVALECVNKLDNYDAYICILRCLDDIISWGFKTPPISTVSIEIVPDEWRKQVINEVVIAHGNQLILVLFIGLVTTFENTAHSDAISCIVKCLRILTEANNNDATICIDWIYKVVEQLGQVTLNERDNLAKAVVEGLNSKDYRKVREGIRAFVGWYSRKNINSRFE

[1] = target: T2, in vitro-translated 35S-labeled Mtr10p (S. cerevisiae, UniProt Q99189 1-972, 35S-labeled)
T2 sequence (looked up): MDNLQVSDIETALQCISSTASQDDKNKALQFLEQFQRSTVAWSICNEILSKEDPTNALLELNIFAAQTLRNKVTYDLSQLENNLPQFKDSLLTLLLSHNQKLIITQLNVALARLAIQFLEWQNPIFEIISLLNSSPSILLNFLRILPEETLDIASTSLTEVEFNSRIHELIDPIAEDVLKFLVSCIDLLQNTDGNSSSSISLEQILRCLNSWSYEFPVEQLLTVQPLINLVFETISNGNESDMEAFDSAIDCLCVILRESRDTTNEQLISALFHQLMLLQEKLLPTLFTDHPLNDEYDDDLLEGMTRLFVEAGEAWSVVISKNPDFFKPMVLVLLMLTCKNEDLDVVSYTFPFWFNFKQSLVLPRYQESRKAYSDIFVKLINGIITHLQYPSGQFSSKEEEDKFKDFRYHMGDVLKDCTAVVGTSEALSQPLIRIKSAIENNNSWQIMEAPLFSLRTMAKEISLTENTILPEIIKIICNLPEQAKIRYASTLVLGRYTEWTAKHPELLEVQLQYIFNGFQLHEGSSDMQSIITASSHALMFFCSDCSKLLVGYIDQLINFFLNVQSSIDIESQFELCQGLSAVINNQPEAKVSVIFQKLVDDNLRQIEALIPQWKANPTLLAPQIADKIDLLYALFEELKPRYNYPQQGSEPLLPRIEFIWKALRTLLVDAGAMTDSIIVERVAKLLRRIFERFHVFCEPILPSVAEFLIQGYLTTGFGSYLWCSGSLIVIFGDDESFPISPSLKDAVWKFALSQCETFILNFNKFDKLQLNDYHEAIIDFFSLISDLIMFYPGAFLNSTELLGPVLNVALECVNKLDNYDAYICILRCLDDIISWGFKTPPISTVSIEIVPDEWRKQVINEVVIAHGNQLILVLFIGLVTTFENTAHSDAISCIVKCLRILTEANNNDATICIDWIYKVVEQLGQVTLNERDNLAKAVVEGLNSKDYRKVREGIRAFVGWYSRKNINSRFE

Molecule: Npl3p (from UniProt Q01560) Sky1p-phosphorylated GST-Npl3p
- binding against the reference (Mtr10p): stronger

B1: Npl3p (endogenous) (natural protein, S. cerevisiae (endogenous in yeast), UniProt Q01560 1-414, looked up)
chain: MSEAQETHVEQLPESVVDAPVEEQHQEPPQAPDAPQEPQVPQESAPQESAPQEPPAPQEQNDVPPPSNAPIYEGEESHSVQDYQEAHQHHQPPEPQPYYPPPPPGEHMHGRPPMHHRQEGELSNTRLFVRPFPLDVQESELNEIFGPFGPMKEVKILNGFAFVEFEEAESAAKAIEEVHGKSFANQPLEVVYSKLPAKRYRITMKNLPEGCSWQDLKDLARENSLETTFSSVNTRDFDGTGALEFPSEEILVEALERLNNIEFRGSVITVERDDNPPPIRRSNRGGFRGRGGFRGGFRGGFRGGFSRGGFGGPRGGFGGPRGGYGGYSRGGYGGYSRGGYGGSRGGYDSPRGGYDSPRGGYSRGGYGGPRNDYGPPRGSYGGSRGGYDGPRGDYGPPRDAYRTRDAPRERSPTR
- fold reduction of co-precipitated Npl3p in sky1Δ against wild-type yeast (Mtr10-Protein A): 3 fold

B2: GST-Npl3p phosphorylated by Sky1p (natural protein, S. cerevisiae, UniProt Q01560 1-414, looked up)
chain: MSEAQETHVEQLPESVVDAPVEEQHQEPPQAPDAPQEPQVPQESAPQESAPQEPPAPQEQNDVPPPSNAPIYEGEESHSVQDYQEAHQHHQPPEPQPYYPPPPPGEHMHGRPPMHHRQEGELSNTRLFVRPFPLDVQESELNEIFGPFGPMKEVKILNGFAFVEFEEAESAAKAIEEVHGKSFANQPLEVVYSKLPAKRYRITMKNLPEGCSWQDLKDLARENSLETTFSSVNTRDFDGTGALEFPSEEILVEALERLNNIEFRGSVITVERDDNPPPIRRSNRGGFRGRGGFRGGFRGGFRGGFSRGGFGGPRGGFGGPRGGYGGYSRGGYGGYSRGGYGGSRGGYDSPRGGYDSPRGGYSRGGYGGPRNDYGPPRGSYGGSRGGYDGPRGDYGPPRDAYRTRDAPRERSPTR
modifications: phosphoserine at 411 (single site of Sky1p)
- Kd [1]: 30 nM
